Source: patent US20240084009A1 (HARPOON THERAPEUTICS, published 2024)

T1: cyno CD3e (Macaca fascicularis (cynomolgus monkey), UniProt Q95LI5)
T1 construct: not described; also called cynomolgus CD3ε; cynomolgus CD3
T1 sequence (CD3 epsilon, looked up): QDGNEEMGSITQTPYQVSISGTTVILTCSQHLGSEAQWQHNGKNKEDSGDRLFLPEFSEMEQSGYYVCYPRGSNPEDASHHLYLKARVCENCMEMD


Tests used:
cyno CD3e = target: T1, cyno CD3e; assay: kinetic Kd determination of the expressed scFv, method not named
biotinylated hu-CD3ε = target: T2, biotinylated hu-CD3ε (human, UniProt P07766 23-126, limits assumed, biotinylated (site not stated)); assay: as above
T2 construct: The construct is not described; also called biotin-CD3ε; human CD3ε
T2 sequence (P07766 23-126 limits assumed): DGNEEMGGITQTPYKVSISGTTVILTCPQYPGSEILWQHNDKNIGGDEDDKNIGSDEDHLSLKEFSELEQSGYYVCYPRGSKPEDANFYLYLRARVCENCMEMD

| Kd (cyno CD3e) [µM] | koff (cyno CD3e) [s⁻¹] | kon (cyno CD3e) [M⁻¹ s⁻¹] | Kd (biotinylated hu-CD3ε) [µM] | koff (biotinylated hu-CD3ε) [s⁻¹] | kon (biotinylated hu-CD3ε) [M⁻¹ s⁻¹] | Binder |
| --- | --- | --- | --- | --- | --- | --- |
| 0.115 | 0.111 | 964000 | 0.117 | 0.115 | 994000 | Anti-CD3, clone 2G5 (scFv, Expressed in Expi293 from the pcDNA3.4 His6 vector) scFv: EVQLVESGGGLVQPGGSLKLSCAASGFTFNKYALNWVRQAPGKGLEWVARIRSKYNNYATEYADSVKDRFTISRDDSKNTAYLQMNNLKTEDTAVYYCVRHGNFGNSPISYWAYWGQGTLVTVSSGGGGSGGGGSGGGGSQTVVTQEPSLTVSPGGTVTLTCGSSTGAVTSGNYPNWVQQKPGQAPRGLIGGTNFLAPGTPERFSGSLLGGKAALTLSGVQPEDEAEYYCVLWYSNRWAFGGGTKLTVLHHHHHH |
| 0.0066 | 0.00438 | 712000 | 0.008 | 0.00502 | 704000 | Anti-CD3, clone 3F2 (scFv, Expressed in Expi293 from the pcDNA3.4 His6 vector) scFv: EVQLVESGGGLVQPGGSLKLSCAASGFTYNKYAMNWVRQAPGKGLEWVARIRSKYNNYATYYADEVKDRFTISRDDSKNTAYLQMNNLKTEDTAVYYCVRHGNFGNSPISYWAYWGQGTLVTVSSGGGGSGGGGSGGGGSQTVVTQEPSLTVSPGGTVTLTCGSSKGAVTSGNYPNWVQQKPGQAPRGLIGGTKELAPGTPARFSGSLLGGKAALTLSGVQPEDEAEYYCTLWYSNRWVFGGGTKLTVLHHHHHH |
| 0.0468 | 0.0238 | 508000 | 0.0498 | 0.026 | 522000 | Anti-CD3, clone 10E4 (scFv, Expressed in Expi293 from the pcDNA3.4 His6 vector) scFv: EVQLVESGGGLVQPGGSLKLSCAASGFTFNKYPMNWVRQAPGKGLEWVARIRSKYNNYATYYADSVKDRFTISRDDSKNTAYLQMNNLKNEDTAVYYCVRHGNFNNSYISYWAYWGQGTLVTVSSGGGGSGGGGSGGGGSQTVVTQEPSLTVSPGGTVTLTCGSSTGAVTKGNYPNWVQQKPGQAPRGLIGGTKMLAPGTPARFSGSLLGGKAALTLSGVQPEDEAEYYCALWYSNRWVFGGGTKLTVLHHHHHH |
| 0.0049 | 0.00222 | 456000 | 0.0047 | 0.00248 | 522000 | Anti-CD3, clone 6A2 (scFv, Expressed in Expi293 from the pcDNA3.4 His6 vector) scFv: EVQLVESGGGLVQPGGSLKLSCAASGFMFNKYAMNWVRQAPGKGLEWVARIRSKSNNYATYYADSVKDRFTISRDDSKNTAYLQMNNLKTEDTAVYYCVRHGNFGNSYISYWATWGQGTLVTVSSGGGGSGGGGSGGGGSQTVVTQEPSLTVSPGGTVTLTCGSSFGAVTSGNYPNWVQQKPGQAPRGLIGGTKLLAPGTPARFSGSLLGGKAALTLSGVQPEDEAEYYCVLWYSNSWVFGGGTKLTVLHHHHHH |
